From patent US20060165683A1, “Methods and compositions for control of bone formation via modulation of sympathetic tone” (priority 2001, published 2006) come the findings set out here.

In data set [1] the test system is murine primary osteoblasts. The data set is described as follows: cAMP production in murine primary osteoblasts. The data set is classed as cell-based, mouse. As to conditions: confluent cultures, 100 μM IBMX, 5 min treatment; PTH as positive control. On the procedure:
Primary osteoblast cultures were established as previously described (see, e.g., Ducy et al., 2000, Cell 100: 197-207) and maintained in αMEM/0.1 mg/ml ascorbic acid supplemented with 10% FBS. SaOS-2 were grown in MEM/10% FBS. For cAMP assay confluent cultures were incubated with serum free medium containing 100 μM IBMX (3-isobutyl-1-methylxanthine, Sigma) for 8 minutes before PBS, PTH(1-34) (Bachem), isoproterenol, norepinephrine, phenylephrine (Sigma) or propranolol were added for 5 min. Intracellular cAMP concentration was measured by immunoassay (R&D Systems). For gene expression analyses, primary osteoblasts were treated for 72 hours with appropriate drugs in 0.1% FBS. Hormone serum levels were quantified using immunoassays kits from Peninsula Laboratories (Insulin) or Alpco Diagnostics (leptin). Deoxypyridinoline cross-links and Creatinine were measured in morning urines using the Quidel kits. a1(I) leptin bioactivity was verified by cotransfection of 293 cells expressing ObRb with a STAT3-responsive-luc reporter construct, pSVβgal plasmid and a1(I) leptin expression vector or mock. Twenty-four hours later luciferase and β-galactosidase activities were measured. Data represents ratios of luciferase/β-galactosidase activities, and values are mean of 6 independent transfection experiments.
For a sympathetic regulation of bone formation to exist several requirements have to be fulfilled. The first one is that functional adrenergic receptors are present on osteoblasts. […] Immunohistochemical analysis of long bones from transgenic mice expressing LacZ under the control of the osteoblast-specific fragment of the a1(I) collagen promoter verified the presence of β2-adrenergic receptors on osteoblasts (FIG. 13B). No other adrenergic receptor subtype could be detected. […] Electron micrographs confirmed the presence of unmyelinated peripheral nerve axons coursing through the marrow adjacent to bone trabeculae and to osteoblasts (FIG. 13E). β-adrenergic receptors are G-coupled receptors that signal through the cAMP pathway (see, e.g., Benovic et al., 1988, Annu Rev Cell Biol 4:405-428). Thus, to assess the biologic relevance of the presence of β2-adrenergic receptors on osteoblasts, these cells were treated with isoproterenol, a β-adrenergic agonist, alone or in the presence of propranolol, a β-adrenergic receptor antagonist; with norepinephrine, the natural ligand of β-adrenergic receptors; with phenylephrine, an α-adrenergic agonist or with vehicle and measured cAMP production. As a positive control, parathyroid hormone (PTH) that binds to another G-coupled receptor present in osteoblasts was used (Gardella & Juppner, 2001, Trends Endocrinol Metab 12:210-217.). […] These effects were abolished by propranolol treatment. […]
(In general: Cyclic AMP is a second messenger, typically raised through Gs and lowered through Gi signalling.)

The subject of the next data set is ob/ob mice. The data set is described as follows: Intracerebroventricular infusion of leptin in ob/ob mice. In kind it is in vivo, mouse. The method, then:
Lastly, the issue of whether leptin binding to its hypothalamic receptor could correct the high bone mass phenotype of the ob/ob mice as it can rescue their obesity phenotype was addressed. To that end pumps delivering either PBS or leptin (8 ng/hr) in the third ventricle of ob/ob mice were inserted as follows. Animals were anesthetized with avertin and placed on a stereotaxic instrument (Stoelting). The Calabria was exposed and a 0.7 mm hole was drilled upon bregma. A 28-gauge cannula (Brain infusion kit U, Alza) was implanted into the third ventricle according to the following coordinates: midline, −0.3 AP, 3 mm ventral (0 point bregma). The cannula was secured to the skull with cyanoacrylate, and attached with Tygon tubing to an osmotic pump (Alza) placed in the dorsal subcutaneous space of the animal. The rate of delivery was 0.25 μl/hour (8 ng/hr of leptin (Sigma)) or PBS for 28 days. The dosage has been previously shown to have no effect when administered systemically (Halaas et al., 1997, Proc Nati Acad Sci USA 94:8878-8883). To be as close as possible to the biological situation of the ob/ob mice, the animals in which pumps were inserted were ovariectomized to avoid any artificial increase in bone mass due to the correction of their hypogonadism. The pumps were left in place for 28 days and double-labeling with calcein was performed to measure the bone formation parameters.

In the next data set the test system is wildtype mice. The data set is described as follows: Central (ICV) infusion of leptin in wildtype mice. In kind it is in vivo, mouse. On the procedure: (§1) Wildtype (C57BL/6J) and mutant (C57BL/6J A^y/a, C57BL/6J ob/ob) mice were obtained from the Jackson laboratory and adrenal medullectomized mice from Harlan Tecklad laboratory. Dbh−/− mice were rescued as previously described (Thomas et al., 1998, Neurochem 70:2468-2476). Isoproterenol (Sigma) was injected intraperitoneally (ip) once daily for 6 weeks at 30 mg/kg (wt) or 3 mg/kg (ob/ob). Propranolol (Sigma) was added to the drinking water at a concentration of 0.5 g/l. For ICV infusion, a 28-gauge cannula (Brain infusion kit II, Alza) was implanted into the third ventricle as previously described infusing human leptin (Sigma) at 8 ng/hr or MT-II at 125 ng/hr (Phoenix Pharmaceuticals) for 28 days (see, e.g., Ducy et al., 2000, Cell 100: 197-207). The cannula was connected to an osmotic pump (Alza) placed in the dorsal subcutaneous space of the animal. For parabiosis longitudinal incisions were made in the skin and in the peritoneal cavity along one side on each mouse. Edges of the incisions were connected by suture to induce coelioanastomosis. Cross-circulation was quantified by injecting 1 ml/kg 0.25% Evans blue into the tail vein of one mouse of the parabiosed pair. After 30 min. blood was collected from both mice by retroorbital bleeding and the blood exchange rate was calculated according to standard techniques (see, e.g., Harris & Martin, 1984, Am J Physiol 247:R380-386). […]

Another data set concerns Dbh-deficient mice. The data set is described as follows: Leptin ICV infusion in Dbh-deficient mice. In kind it is in vivo, mouse. On the procedure:
as §1

Where [2] appears, read: ob/ob mice, ICV 8 ng/hr, 28 days.

Regarding `CC(C)NCC(O)c1ccc(O)c(O)c1` (stereo not drawn) [isoproterenol], the cAMP production entry in data set [1] was “increased”.

B1: leptin: polypeptide hormone, product of the ob gene; human leptin (Sigma) infused ICV (protein)
chain: VPIQKVQDDTKTLIKTIVTRINDISHTQSVSAKQRVTGLDFIPGLHPILSLSKMDQTLAVYQQVLTSLPSQNVLQIANDLENLRDLLHLLAFSKSCSLPQTSGLQKPESLDGVLEASLYSTEVVALSRLQGSLQDILQQLDVSPEC
As for B1, the “leptin in the serum (radioimmunoassay)” value in the data set on ob/ob mice (ob/ob mice after ICV infusion) is “No leptin in the serum of these animals was detected”. Moreover, in the data set with ob/ob mice (setting [2]), the Bone Volume entry was “significantly decreased”, the bone formation rates entry is on record as “significantly decreased” and the trabeculae thickness entry is “significantly decreased”. Further, the “bone appearance (classical histology)” value in the data set with ob/ob mice (ovariectomized ob/ob mice, third ventricle, 8 ng/hr, 28 days, vs PBS) is “regained a normal appearance”. Moreover, in the data set on wildtype mice, the “bone mass / bone volume and bone formation parameters” value is reported as “decreased”. Further, in the data set on Dbh-deficient mice, the bone mass result was “failed to decrease” and the gonadal fat pad entry is on record as “near disappearance”.
